For experiment [1], the target named is T1, monoclonal antibody SM3 (secreted by the hybridoma HSM3, ECACC accession no. 87010701).
T1 construct: The general ELISA method detects it with goat anti-mouse (Fc specific) conjugate; also called SM3 antibody
Kind of experiment: inhibition ELISA of SM3 (1 ug/ml) binding to the fusion protein with seven MUC1 tandem repeats.

In experiment [2] the target is T1, monoclonal antibody SM3 (secreted by …). Kind of experiment: inhibition ELISA: SM3 at 1 ug/ml incubated with increasing peptide, binding to the fusion protein with seven MUC1 tandem repeats.

T1 sequence (VH, as listed by the source limits assumed, chain 1 of 2): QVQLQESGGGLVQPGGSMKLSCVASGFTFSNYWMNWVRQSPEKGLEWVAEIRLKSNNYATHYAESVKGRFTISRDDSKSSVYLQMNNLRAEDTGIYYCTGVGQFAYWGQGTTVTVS
T1 sequence (VL, as listed by the source limits assumed, chain 2 of 2): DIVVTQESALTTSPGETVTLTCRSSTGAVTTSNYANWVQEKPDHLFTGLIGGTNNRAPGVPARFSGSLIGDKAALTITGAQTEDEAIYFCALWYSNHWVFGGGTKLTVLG

B1: control peptide of the same composition but different sequence (Ala-Arg-Pro-Thr-Gly-Thr-Ser-Asp-Pro-Thr-Pro-Ala-Ser) (peptide)
peptide: ARPTGTSDPTPAS
As for B1, the binding result in experiment [1] is “no binding (tested: approximately 30μg/ml)”.

B2: MUC1 peptide Thr-Ser-Ala-Pro-Asp-Thr-Arg-Pro-Ala-Pro-Gly-Ser-Thr ("the crystal peptide") (peptide)
peptide: TSAPDTRPAPGST
notes: Non-glycosylated peptide; also called MUCl peptide; MUCl peptide antigen
Regarding B2, in experiment [2], the “Apparent Ka” value is around 24 µM and the 50% inhibitory concentration (IC50) was around 30 µg/mL.

The values above are taken from patent WO1999010379A1 (dated 1999).
